Experimental data: article PMC12152899, “Disulfide-mediated tetramerization of TRAP1 fosters its antioxidant and pro-neoplastic activities” (Redox Biology, 2025)
Numbering of substitutions follows the chain as printed. Numbers in names are those of the source.

B1: recombinant human TRAP1 C501S (natural protein, UniProt Q12931 60-704, looked up)
chain: STQTAEDKEEPLHSIISSTESVQGSTSKHEFQAETKKLLDIVARSLYSEKEVFIRELISNASDALEKLRHKLVSDGQALPEMEIHLQTNAEKGTITIQDTGIGMTQEELVSNLGTIARSGSKAFLDALQNQAEASSKIIGQFGVGFYSAFMVADRVEVYSRSAAPGSLGYQWLSDGSGVFEIAEASGVRTGTKIIIHLKSDCKEFSSEARVRDVVTKYSNFVSFPLYLNGRRMNTLQAIWMMDPKDVREWQHEEFYRYVAQAHDKPRYTLHYKTDAPLNIRSIFYVPDMKPSMFDVSRELGSSVALYSRKVLIQTKATDILPKWLRFIRGVVDSEDIPLNLSRELLQESALIRKLRDVLQQRLIKFFIDQSKKDAEKYAKFFEDYGLFMREGIVTATEQEVKEDIAKLLRYESSALPSGQLTSLSEYASRMRAGTRNIYYLSAPNRHLAEHSPYYEAMKKKDTEVLFCFEQFDELTLLHLREFDKKKLISVETDIVVDHYKEEKFEDRSPAAECLSEKETEELMAWMRNVLGSRVTNVKVTLRLDTHPAMVTVLEMGAARHFLRMQQLAKTQEERAQLLQPTLEINPRHALIKKLNQLRASEPGLAQLLVDQIYENAMIAAGLVDDPRAMVGRLNELLVKALERH
notes: Cloned in pET-26b(+); same construct as m1 with the mutation; source: E. coli BL21(DE3), purified (Ni-NTA)
B2: recombinant human TRAP1 C501S/C527A double mutant (natural protein, UniProt Q12931 60-704, looked up)
chain: B1 chain with C468A
notes: Cloned in pET-26b(+); same construct as m1 with the mutations; source: E. coli BL21(DE3), purified (Ni-NTA)
B3: recombinant human TRAP1 C573R (natural protein, UniProt Q12931 60-704, looked up)
chain: B1 chain with S442C, C514R
notes: as for B1
B4: recombinant human TRAP1 C527A (natural protein, UniProt Q12931 60-704, looked up)
chain: B1 chain with S442C, C468A
notes: as for B1
B5: recombinant human TRAP1 C261S (natural protein, UniProt Q12931 60-704, looked up)
chain: B1 chain with C202S, S442C
notes: as for B1
B6: recombinant human TRAP1 wild type, lacking the mitochondrial import sequence (natural protein, UniProt Q12931 60-704, looked up)
chain: B1 chain with S442C
notes: Cloned in pET-26b(+); Dimer by gel filtration with DTT; an additional tetramer peak after H2O2; also called WT TRAP1; TRAP1 WT; source: E. coli BL21(DE3), purified (Ni-NTA)

Target: the molecule itself
Experiment: non-reducing SDS-PAGE; purified recombinant TRAP1, DTT removed, 150 mM NaCl, 50 mM TRIS, pH 7.5, 37 °C, 100 μM H2O2 for 30 min (1 nM to 100 μM in Fig. 1B); disulfide-linked band above 170 kDa; Coomassie or stain-free

Protein | binding result
B1 | binds
B2 | binds
B3 | binds
B4 | binds
B5 | binds

Target: the molecule itself
Experiment: SEC; Superdex 200 HR 10/30, 20 mM TRIS, 150 mM NaCl, pH 7; recombinant TRAP1 incubated with 100 μM H2O2; additional peak beside the dimer; dimers to tetramer

Protein | stoichiometry N
B6 | 4
